Results as given in article PMC11189301, “Structure of the human outer kinetochore KMN network complex” (Nature Structural & Molecular Biology, 2024).
Substitutions are numbered along the chain they refer to.

Experiments:
MIS12C (WT) = target: T1, MIS12C (WT) (Homo sapiens, UniProt Q6P1K2+Q96IY1+Q9H081+Q9H410); experiment: Isothermal titration calorimetry (ITC), peptide titrated into wild-type MIS12C; assay type: binding; conditions: 20 °C, pH 7.5, wild-type MIS12C
T1 construct: TEV-cleavable double Strep II (DS) tag (C); made in house; host or cells: High-5 insect cells (baculovirus)

MIS12C^Dsn1ΔN = target: T2, MIS12C^Dsn1ΔN (Homo sapiens, UniProt Q6P1K2+Q96IY1+Q9H081+Q9H410, DEL6-113); experiment: ITC, peptide titrated into MIS12C with deleted Dsn1^N (residues 6–113); assay type: binding; conditions: ITC Kd ratio, MIS12C^Dsn1ΔN vs MIS12C
T2 construct: all proteins, apart from Knl1, were full length; TEV-cleavable double Strep II (DS) tag (C); made in house; host or cells: High-5 insect cells (baculovirus; Nsl1-Dsn1 virus plus Mis12-Pmf1 virus)

[1] = system: MIS12^Dsn1-W96A R97A R98A; experiment: Analytical SEC, CENP-C^1–71 binding to MIS12C with WRR linchpin substitutions; design: species or system Homo sapiens; conditions: 4 µM CENP-C^1–71-MBP + 4 µM MIS12^Dsn1-W96A R97A R98A; 20 mM HEPES pH 7.8, 150 mM NaCl, 0.5 mM TCEP; Superdex S200; SDS-PAGE; at least two repeats
Method: (§1) Four micromolar of CENP-C^1–71-MBP was mixed with 4 µM of either wild-type MIS12C or three mutants (MIS12C^ΔN-Dsn1, MIS12^Dsn1-W96A R97A R98A, MIS12C^Dsn1-S100D S109D) in a buffer of 20 mM HEPES (pH 7.8), 150 mM NaCl and 0.5 mM TCEP, and 50 µl of the mixture was loaded onto a Superdex S200 size-exclusion column (Cytiva).
(§2) Coloured by pLDDT score. e AlphaFold2 Multimer prediction of the K. lactis MIS12C coloured by subunit with insert highlighting conservation of the auto-inhibitory Dsn1^N mechanism. Source data

Wild-type MIS12C = experiment: Analytical size-exclusion chromatography (SEC), CENP-C^1–71 binding to wild-type MIS12C; design: species or system Homo sapiens; conditions: 4 µM CENP-C^1–71-MBP + 4 µM wild-type MIS12C; 20 mM HEPES pH 7.8, 150 mM NaCl, 0.5 mM TCEP; Superdex S200; SDS-PAGE; at least two repeats
Method: as §1, §2

MIS12C = conditions: cited from earlier work
Source text: We used isothermal titration calorimetry (ITC) to test this structural model by measuring the affinities of MIS12C for both a peptide modeled on CENP-C and a Dsn1^N auto-inhibitory peptide, including structure-guided interface mutants (Fig. 2g and Extended Data Fig. 4). […] Deletion of Dsn1^N (residues 6–113; MIS12C ...

Dsn1 = target: T3, Dsn1 (Homo sapiens, UniProt Q9H410 1-356); experiment: cryo-EM structure; NDC80C, MIS12C and KNL1C mixed 1:1:1 and run on Superose 6 in 20 mM HEPES pH 8.0, 80 mM NaCl, 1 mM MgCl2, 1 mM TCEP; about 1 mg/ml on UltrAuFoil grids; 3.0 Å (MIS12C heads 3.8 Å); conditions: both partners purified
T3 construct: Dsn1, subunit of human MIS12C; Subunit within the KMN network cryo-EM sample; residues N-terminal to Arg92 are disordered; source: High-5 insect cells, expressed and purified as part of MIS12C
T3 sequence (looked up): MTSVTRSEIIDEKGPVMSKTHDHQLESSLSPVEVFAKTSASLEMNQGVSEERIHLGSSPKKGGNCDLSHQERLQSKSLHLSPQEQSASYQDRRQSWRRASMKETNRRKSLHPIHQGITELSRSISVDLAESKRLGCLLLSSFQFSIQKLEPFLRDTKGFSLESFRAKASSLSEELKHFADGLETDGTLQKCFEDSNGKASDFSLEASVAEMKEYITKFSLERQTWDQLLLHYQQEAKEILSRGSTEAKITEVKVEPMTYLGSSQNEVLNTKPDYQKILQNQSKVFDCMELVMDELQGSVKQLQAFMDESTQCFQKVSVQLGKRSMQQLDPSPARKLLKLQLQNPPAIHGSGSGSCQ

Nsl1 = target: T4, Nsl1 (Homo sapiens, UniProt Q96IY1 1-281); experiment: as above; conditions: both partners purified
T4 construct: Nsl1, subunit of human MIS12C; Subunit within the KMN network cryo-EM sample; source: High-5 insect cells, expressed and purified as part of MIS12C
T4 sequence (looked up): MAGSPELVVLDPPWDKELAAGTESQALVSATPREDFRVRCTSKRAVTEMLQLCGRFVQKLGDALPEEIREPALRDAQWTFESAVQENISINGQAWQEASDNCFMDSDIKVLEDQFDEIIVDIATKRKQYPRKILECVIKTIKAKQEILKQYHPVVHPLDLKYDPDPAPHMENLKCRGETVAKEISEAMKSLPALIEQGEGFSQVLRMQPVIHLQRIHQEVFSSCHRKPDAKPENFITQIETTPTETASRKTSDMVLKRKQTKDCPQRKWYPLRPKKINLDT

Spc25 = target: T5, Spc25 (Homo sapiens, UniProt Q9HBM1 1-224); experiment: as above; conditions: both partners purified
T5 construct: Spc25, subunit of human NDC80C; coordinates traced D80–N224; Subunit within the KMN network cryo-EM sample; source: High-5 insect cells, expressed and purified as part of NDC80C
T5 sequence (looked up): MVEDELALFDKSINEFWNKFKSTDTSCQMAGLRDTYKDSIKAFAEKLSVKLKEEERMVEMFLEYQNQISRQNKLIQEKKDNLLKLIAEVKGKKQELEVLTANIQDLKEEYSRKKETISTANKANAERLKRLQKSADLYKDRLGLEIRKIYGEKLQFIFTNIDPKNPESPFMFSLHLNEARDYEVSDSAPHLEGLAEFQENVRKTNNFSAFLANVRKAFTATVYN

[2] = target: T6, MIS12 complex with Dsn1 residues 6–113 deleted (Homo sapiens, UniProt Q9H081 1-205; Q6P1K2 1-205; Q9H410 1-356; Q96IY1 1-281, 6–113 residues deleted); experiment: ITC; peptide in the syringe titrated into the MIS12C variant in the cell; 20 °C; 20 mM HEPES pH 7.5, 100 mM NaCl, 1 mM TCEP; single-site binding model; duplicate or triplicate; conditions: both partners purified
T6 construct: Mis12, subunit of human MIS12C; Pmf1, subunit of human MIS12C; Nsl1, subunit of human MIS12C; also called MIS12C^Dsn1ΔN; MIS12C^ΔN-Dsn1; source: High-5 insect cells (baculovirus), purified (Strep-Tactin, Resource S, Superdex 200); copies: + + +
T6 sequence (looked up) 1: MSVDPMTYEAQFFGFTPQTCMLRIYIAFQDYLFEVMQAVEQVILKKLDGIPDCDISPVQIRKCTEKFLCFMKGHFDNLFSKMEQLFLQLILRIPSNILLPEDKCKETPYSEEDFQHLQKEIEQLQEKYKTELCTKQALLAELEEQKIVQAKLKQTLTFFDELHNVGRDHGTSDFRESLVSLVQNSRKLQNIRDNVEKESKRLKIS
T6 sequence (looked up) 2: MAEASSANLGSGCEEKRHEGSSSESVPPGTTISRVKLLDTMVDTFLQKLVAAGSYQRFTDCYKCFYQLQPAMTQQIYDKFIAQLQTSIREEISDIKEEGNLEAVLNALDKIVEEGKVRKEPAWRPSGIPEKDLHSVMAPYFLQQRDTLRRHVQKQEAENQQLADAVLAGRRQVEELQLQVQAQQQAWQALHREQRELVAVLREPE
T6 sequence (looked up) 3: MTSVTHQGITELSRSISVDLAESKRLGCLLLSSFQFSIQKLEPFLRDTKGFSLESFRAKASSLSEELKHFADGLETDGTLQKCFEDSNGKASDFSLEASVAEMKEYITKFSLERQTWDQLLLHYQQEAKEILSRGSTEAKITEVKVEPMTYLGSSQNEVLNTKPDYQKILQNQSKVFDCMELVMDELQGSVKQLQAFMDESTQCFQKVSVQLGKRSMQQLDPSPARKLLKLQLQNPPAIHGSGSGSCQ
T6 sequence (looked up) 4: T4 sequence (looked up)

[3] = target: T7, MIS12 complex with phosphomimetic Dsn1 S100D S109D (Homo sapiens, UniProt Q9H081 1-205; Q6P1K2 1-205; Q9H410 1-356; Q96IY1 1-281, S100D | S109D); experiment: as above; conditions: both partners purified
T7 construct: Mis12, subunit of human MIS12C; Pmf1, subunit of human MIS12C; Dsn1, subunit of human MIS12C, S100D S109D; Nsl1, subunit of human MIS12C; also called MIS12C^(Dsn1-S100D S109D); MIS12C^(Dsn1 S100D/S109D); source: High-5 insect cells (baculovirus), purified (Strep-Tactin, Resource S, Superdex 200); copies: + + +
T7 sequence (looked up) 1: T6 sequence (looked up) 1
T7 sequence (looked up) 2: T6 sequence (looked up) 2
T7 sequence (looked up) 3: T3 sequence (looked up) with S100D, S109D
T7 sequence (looked up) 4: T4 sequence (looked up)

[4] = target: T8, MIS12 complex (Mis12, Pmf1, Dsn1, Nsl1), wild type, full length (Homo sapiens, UniProt Q9H081 1-205; Q6P1K2 1-205; Q9H410 1-356; Q96IY1 1-281); experiment: as above; conditions: both partners purified
T8 construct: Mis12, subunit of human MIS12C; Pmf1, subunit of human MIS12C; Dsn1, subunit of human MIS12C; Nsl1, subunit of human MIS12C; The DS tag on Pmf1 is TEV cleavable; a cleavage is not described; also called MIS12C (WT); wild-type MIS12C; source: High-5 insect cells (baculovirus), purified (Strep-Tactin, Resource S, Superdex 200); copies: + + +
T8 sequence (looked up) 1: T6 sequence (looked up) 1
T8 sequence (looked up) 2: T6 sequence (looked up) 2
T8 sequence (looked up) 3: T3 sequence (looked up)
T8 sequence (looked up) 4: T4 sequence (looked up)

Ac-RRQSWRRASMKETNRRKSLHPIAW-NH2 [Dsn1^92–113]
affinity of Dsn1^92–113 for MIS12C, in words (MIS12C (WT)): high-micromolar affinity | enhancement of Dsn1^92–113 binding on deleting Dsn1^N, relative to MIS12C (WT) (MIS12C^Dsn1ΔN): 44 fold

CENP-C^1–71: CENP-C residues 1–71 fused to a C-terminal maltose-binding protein (MBP) tag, expressed in E. coli
CENP-C^1–71 binding by SEC, in words [1]: binding of almost all CENP-C | CENP-C^1–71 binding by SEC, in words (Wild-type MIS12C): only partially bound

residues 1–21 of CENP-C: residues 1–21 of CENP-C, prior data of ref 10
increase in affinity of MIS12C for residues 1–21 of CENP-C on deleting a ten-residue segment of Dsn1 incorporating Ser100 and Ser109 (MIS12C): 90 fold

B1: Spc24 (natural protein, Homo sapiens, UniProt Q8NBT2 1-197, looked up)
chain: MAAFRDIEEVSQGLLSLLGANRAEAQQRRLLGRHEQVVERLLETQDGAEKQLREILTMEKEVAQSLLNAKEQVHQGGVELQQLEAGLQEAGEEDTRLKASLLQLTRELEELKEIEADLERQEKEVDEDTTVTIPSAVYVAQLYHQVSKIEWDYECEPGMVKGIHHGPSVAQPIHLDSTQLSRKFISDYLWSLVDTEW
notes: Spc24, subunit of human NDC80C; coordinates traced G86–W197; Subunit within the KMN network cryo-EM sample; source: High-5 insect cells, expressed and purified as part of NDC80C
binding result (Dsn1): binds | binding result (Nsl1): binds | binding result (Spc25): binds

B2: CENP-C^2–22 peptide (peptide)
peptide: Ac-AASGLDHLKNGYRRRFCRPSRA-NH2
notes: CENP-C, human, named residues 2-22; also called N-terminal region of CENP-C (residues 2–22); source: synthetic peptide (Biosynth)
Kd [2]: 10.2 nM | Kd [3]: 20.4 nM | Kd [4]: 485 nM
